Data taken from PMC8386010, “Nanobody-armed T cells endow CAR-T cells with cytotoxicity against lymphoma cells” (Cancer Cell International, 2021).
No end group written: not given here.

Tests used:
human CD19 antigen [1] = biological target: T1, human CD19 antigen (Homo sapiens, UniProt P15391)
human CD19 antigen [2] = biological target: T1, human CD19 antigen; assay: SPR; Biacore T200; nanobody captured by immobilised mouse anti-human IgG (Fc) antibody; human CD19/CD20 antigen injected in 7 serial twofold dilutions from 10 µg/ml, 30 µl/min, association 120 s, dissociation 300 s; conditions: both partners purified
anti-CD20 Nb1 = biological target: T2, anti-CD20 Nb1 (Bactrian camel); assay: as above; conditions: both partners purified
T2 construct: nanobody selected from a Bactrian camel naive phage display library; In SPR it was captured by an anti-human IgG (Fc) antibody; also called anti-CD20 nanobody; source: cloned into the pCZN1 vector, expressed and purified

T1 sequence (P15391 20-291): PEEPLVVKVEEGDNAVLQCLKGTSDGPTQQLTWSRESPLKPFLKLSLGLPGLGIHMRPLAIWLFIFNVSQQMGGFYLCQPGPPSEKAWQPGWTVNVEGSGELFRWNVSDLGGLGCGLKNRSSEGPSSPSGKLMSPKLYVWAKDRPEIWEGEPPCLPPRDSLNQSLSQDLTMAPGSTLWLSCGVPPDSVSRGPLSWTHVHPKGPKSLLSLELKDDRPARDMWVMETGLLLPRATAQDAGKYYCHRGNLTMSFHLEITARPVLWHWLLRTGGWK

B1: Anti-CD19 Nb3 (VHH)
VHH: QVQLQESGGGSVQGGGSLRLSCAVSGATYMIQYMGWFRQAPGKEREGVAVIHSDDRTTYADSVKGRFTISQDNANHTLYLQMNSLKPEDTGMYVCASSLSKGGYYRGDLVPGQFTYWGRGTQVTVSS
**Q.** Does B1 bind (human CD19 antigen [1])?
**A.** binds

B2: anti-CD19 Nb1 (VHH)
VHH: QVQLQESGGGSVQAGGSLRLSCAVRRPTDSRNCMAWFRQAPGEQREAVAGIDIYRTTGYAESVKGRFTISQDNAKNTLFLQMNSLKPEDSGTYYCAAARPCKYGSEWRRSASDFLYWGQGTQVTVSS
notes: nanobody selected from a Bactrian camel naive phage display library; In SPR it was captured by an anti-human IgG (Fc) antibody; also called anti-CD19 nanobody; source: cloned into the pCZN1 vector, expressed and purified
**Q.** For B2, which Kd (human CD19 antigen [2]) is on record?
**A.** 290 nM

B3: Anti-CD19 Nb2 (VHH)
VHH: QVQLQESGGGSVQTGGSLRLSCAASGFSYTGHHMGWFRQVAAQEREWVGSIYTDPGTTFYADSVKGRFTISQDVAKKMVYLQMNNLKPTDTGIYFCAAEPVADGPPLMSRDRCFGSWGQGTQVTVSS
**Q.** Does B3 bind (human CD19 antigen [1])?
**A.** binds

B4: human CD20 antigen (natural protein)
chain: KISHFLKMESLNFIRAHTPYINIYNCEPANPSEKNSPSTQYCYSIQS
modifications: cysteine pairing not given here; also: biotinylated for panning, position not given here
**Q.** With B4 as the binder, how does the Kd (anti-CD20 Nb1) read?
**A.** 147 nM
